The values that follow come from patent publication US20110319337A1 (published 2011).

Common to all, as to experiment: cell-based or functional assay
Test [1] concerns the target Frizzled 8 receptor (expressed in transfected cells) (human, UniProt Q9H461 28-694).
Test [2] has as its target Frizzled 9 (expressed in transfected 293T cells).
The target in test [3] is T1, Frizzled 6 (expressed in transfected 293T cells).
T1 sequence (O60353 whole entry, species assumed, looked up): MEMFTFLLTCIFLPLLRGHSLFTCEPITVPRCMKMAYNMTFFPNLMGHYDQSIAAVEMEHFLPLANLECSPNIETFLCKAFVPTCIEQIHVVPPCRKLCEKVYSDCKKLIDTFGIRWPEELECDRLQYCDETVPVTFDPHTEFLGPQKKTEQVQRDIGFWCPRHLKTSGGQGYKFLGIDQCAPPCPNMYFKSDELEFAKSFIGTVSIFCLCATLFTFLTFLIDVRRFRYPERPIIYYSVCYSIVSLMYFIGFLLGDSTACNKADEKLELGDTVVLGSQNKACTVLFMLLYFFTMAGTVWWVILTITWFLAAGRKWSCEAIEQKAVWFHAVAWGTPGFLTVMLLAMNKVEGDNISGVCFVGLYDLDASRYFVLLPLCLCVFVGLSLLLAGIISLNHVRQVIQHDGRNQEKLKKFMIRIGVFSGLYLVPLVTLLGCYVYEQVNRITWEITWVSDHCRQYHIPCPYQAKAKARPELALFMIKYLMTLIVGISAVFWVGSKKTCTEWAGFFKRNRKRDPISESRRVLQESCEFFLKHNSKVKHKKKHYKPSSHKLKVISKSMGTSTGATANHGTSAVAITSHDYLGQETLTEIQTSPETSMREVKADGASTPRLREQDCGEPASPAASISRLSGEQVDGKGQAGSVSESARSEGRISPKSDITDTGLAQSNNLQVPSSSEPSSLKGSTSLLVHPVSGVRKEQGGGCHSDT

Test [4] addresses Frizzled 7 (expressed in transfected 293T cells).

Chain of Frizzled 8 receptor (expressed in transfected cells) (Q9H461 28-694 limits assumed): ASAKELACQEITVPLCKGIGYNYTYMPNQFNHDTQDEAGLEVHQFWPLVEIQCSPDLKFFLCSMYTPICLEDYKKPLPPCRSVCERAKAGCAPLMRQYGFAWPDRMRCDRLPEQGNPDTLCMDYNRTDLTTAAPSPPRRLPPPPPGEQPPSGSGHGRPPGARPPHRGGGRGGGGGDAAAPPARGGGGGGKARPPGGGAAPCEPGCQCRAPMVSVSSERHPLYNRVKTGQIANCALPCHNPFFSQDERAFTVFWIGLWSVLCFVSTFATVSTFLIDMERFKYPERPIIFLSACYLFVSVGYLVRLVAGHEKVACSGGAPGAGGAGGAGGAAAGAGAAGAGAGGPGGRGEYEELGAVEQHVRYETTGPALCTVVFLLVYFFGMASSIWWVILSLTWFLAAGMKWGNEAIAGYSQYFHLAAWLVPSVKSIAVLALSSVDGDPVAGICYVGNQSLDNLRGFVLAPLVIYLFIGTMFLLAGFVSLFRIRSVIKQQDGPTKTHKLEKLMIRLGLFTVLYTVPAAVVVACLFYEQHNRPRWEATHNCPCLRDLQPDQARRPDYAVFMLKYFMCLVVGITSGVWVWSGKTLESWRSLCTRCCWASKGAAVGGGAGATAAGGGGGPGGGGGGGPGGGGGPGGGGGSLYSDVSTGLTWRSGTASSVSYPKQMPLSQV

B1: wild type Wnt2 (expressed from transfected Wnt2 cDNA) (ligand)
chain: SWWYMRATGGSSRVMCDNVPGLVSSQRQLCHRHPDVMRAISQGVAEWTAECQHQFRQHRWNCNTLDRDHSLFGRVLLRSSRESAFVYAISSAGVVFAITRACSQGEVKSCSCDPKKMGSAKDSKGIFDWGGCSDNIDYGIKFARAFVDAKERKGKDARALMNLHNNRAGRKAVKRFLKQECKCHGVSGSCTLRTCWLAMADFRKTGDYLWRKYNGAIQVVMNQDGTGFTVANERFKKPTKNDLVYFENSPDYCIRDREAGSLGTAGRVCNLTSRGMDSCEVMCCGRGYDTSHVTRMTKCGCKFHWCCAVRCQDCLEALDVHTCKAPKNADWTTAT
On to B1, for which, in test [1], the “TCF activity (TOPflash reporter) in Human Embryonic Kidney 293 cells and A549 cells compared to vector control” value is 5 fold; the “luciferase activity (TOPflash TCF reporter, 293T cells co-expressing Wnt2 and the Fzd receptor) compared to vector alone” value is 25 fold. In addition, the “luciferase activity (TOPflash TCF reporter, 293T cells co-expressing Wnt2 and the Fzd receptor) over vector control alone” value in test [2] amounted to 16 fold. In addition, in test [3], the “luciferase activity (TOPflash TCF reporter, 293T cells co-expressing Wnt2 and the Fzd receptor)” value came out at 10 fold. In addition, in test [4], the “TCF-activity (TOPflash reporter, 293T cells) compared to vector control” value amounted to 4 fold and the “TCF-activity (TOPflash reporter, 293T cells), increase due to the presence of Wnt2” value is around 2 fold.
